Laboratory results published in publication PMC4557955.

What follows are substances tested on BPs gp33103 repressor (short, prophage-encoded form) (Mycobacteriophage BPs) (assay: EMSA). Conditions: EMSA: 20 mM Tris pH 7.5, 10 mM EDTA, 25 mM NaCl, 10 mM spermidine, 1 mM DTT, 1 ug calf thymus DNA in 10 ul, room temperature 30 min, 5% native gel ….
With “GCATTTTCCAATAGACCGCATATGTCGCTATGTTGGTGCACA (double strand) [O27-L]” the Kd was 38.5 µM.
“TCGGACATGGTGAACGCTTGCGACATATGTCGCCAATGTGTGCATCTTTGCA (double strand) [O55-L]” showed a Kd of 8.5 µM.
“CAAACGCAAAAGTTCGGGCGTGGCGCATTTTCCAATAGAC (double strand) [TIR-5]” was tested, and the Kd was 12.5 µM.
26-27 intergenic region (O27) was tested, and the Kd was 0.9 µM.
Work on 5-6 intergenic region (O6) yielded a Kd of 2.75 µM.
“TCCAATAGACGACATATGTCGCT (double strand) [TIR-6]” was tested, and the Kd was 9.5 µM.
“33-34 intergenic region wild type (366 bp)” was tested, and the Kd was 2.61 µM.
In the case of 60-61 intergenic region (O61), the Kd is reported as 3.4 µM.
Work on 54-55 intergenic region (O55) yielded a Kd of 2.6 µM.
“CACACACGACGCTTGCACCGCGACATATGTCGGTTTTGCAGACGTGCAGGTT (double strand) [O6-L]” was tested, and the Kd was 10.5 µM.
With “GCATTTTCCAATAGACGACATATGTGCCTATGTTGGTGCACA (double strand) [O61-R]” the Kd was 19.5 µM.
For “GCATCACGGACGCTGCTATCCGACATATGTCGTGGATGATCGGGATATGGCC (double strand) [O27-R]”, the Kd was 11 µM.
